The labels stand for the following.
B1: Fab 5349 (Fab, V domains shown)
VH: EVQLVESGGGLVQPGGSLRLSCAASGYSITSGHYWAWIRQAPGKGLEWVSAISGSGSSTYYADSVKGRFTISRDNSKNTLYLQLNSLRAEDTAVYYCARGGSDTVLGDWFAYWGQGTLVTVSS
VL: DIQLTQSPSSLSASVGDRVTITCRASQGISSSLAWYQQKPGKAPKLLIYDASNLETGVPSRFSGSGSGTDFTLTISSLQPEDFATYYCQQGYSTWTFGQGTKVEIKR
notes: Fab from E. coli; also called VH24/VL24
B2: Fab 4076 (Fab, V domains shown)
VH: EVQLVESGGGLVQPGGSLRLSCAASGYSITSGYHWGWIRQAPGKGLEWVSAISGAGGSTYYADSVKGRFTISRDNSKNTLYLQLNSLRAEDTAVYYCARDGYGGSYFDYWGQGTLVTVSS
VL: DIQLTQSPSSLSASVGDRVTITCQASQDISTFLAWYQQKPGKAPKLLIYDASSLESGVPSRFSGSGSGTDFTLTISSLQPEDFATYYCQQAYSIWTFGQGTKVEIKR
notes: Fab from E. coli; also called VH4/VL4
B3: Fab 5417 (Fab, V domains shown)
VH: EVQLVESGGGLVQPGGSLRLSCAASGFSLSTSGVGVAWIRQAPGKGLEWVSSISGAGGTTYYADSVKGRFTISRDNSKNTLYLQLNSLRAEDTAVYYCARGGSTAVTGDWFDYWGQGTLVTVSS
VL: DIQLTQSPSSLSASVGDRVTITCRASQGISPYLAWYQQKPGKAPKLLIYDASNRATGIPSRFSGSGSGTDFTLTISSLQPEDFATYYCQQGYSLWTFGQGTKVEIKR
notes: Fab from E. coli; also called VH39/VL39
B4: Fab 5363 (Fab, V domains shown)
VH: EVQLVESGGGLVQPGGSLRLSCAASGYSISSGHYWTWIRQAPGKGLEWVSAISGSGSSTYYADSVKGRFTISRDNSKNTLYLQLNSLRAEDTAVYYCARGGSDAVLGDWFAYWGQGTLVTVSS
VL: DIQLTQSPSSLSASVGDRVTITCRASQGVGSYLAWYQQKPGKAPKLLIYDASNLETGVPSRFSGSGSGTDFTLTISSLQPEDFATYYCQQGYQLWTFGQGTKVEIKR
notes: Fab from E. coli; also called VH29/VL29
B5: Fab 5407 (Fab, V domains shown)
VH: EVQLVESGGGLVQPGASLRLSCAASGFSLSTGGVGVAWIRQAPGKGLEWVSSISGYGSTTYYADSVKGRFTISRDNSKNTLYLQLNSLRAEDTAVYYCAREGSDAVLGDWFGYWGQGTLVTVSS
VL: DIQLTQSPSSLSASVGDRVTITCQASQDITTYLAWYQQKPGKAPKLLIYDASNRATGIPSRFSGSGSGTDFTLTISSLQPEDFATYYCQQGYYLWTFGQGTKVEIKR
notes: Fab from E. coli; also called VH35/VL35
B6: Fab 5346 (Fab, V domains shown)
VH: EVQLVESGGGLVQPGGSLRLSCAASGFSLSTGGVGVGWIRQAPGKGLEWVSGISGYGSTTYYADSVKGRFTISRDNSKNTLYLQLNSLRAEDTAVYYCAREGSDAVAGDWFDYWGQGTLVTVSS
VL: DIQLTQSPSSLSASVGDRVTITCRASQDIRSYLAWYQQKPGKAPKLLIYDASNRATGIPSRFSGSGSGTDFTLTISSLQPEDFATYYCQQGYSIWTFGQGTKVEIKR
notes: Fab from E. coli; also called VH22/VL22
B7: Fab 3760 (Fab, V domains shown)
VH: EVQLVESGGGLVQPGGSLRLSCAASGFTFTSYGIHWVRQAPGKGLEWVSGISGAGDTTYYADSVKGRFTISRDNSKNTLYLQLNSLRAEDTAVYYCARERDYDFDYWGQGTLVTVSS
VL: DIQLTQSPSSLSASVGDRVTITCRASQSVSSYLAWYQQKPGKAPKLLIYDASNLETGVPSRFSGSGSGTDFTLTISSLQPEDFATYYCQQSYSTSHTFGQGTKVEIKR
notes: Fab from E. coli; also called VH1/VL1
B8: Fab 7080 (Fab, V domains shown)
VH: EVQLVESGGGLVQPGGSLRLSCAASGFSLSTGGVGVGWIRQAPGKGLEWVSYISGAGGTTYYADSVKGRFTISRDNSKNTLYLQLNSLRAEDTAVYYCAREGSDTVLGDWFAYWGQGTLVTVSS
VL: DIQLTQSPSSLSASVGDRVTITCRASQGISSYLAWYQQKPGKAPKLLIYDASNLETGVPSRFSGSGSGTDFTLTISSLQPEDFATYYCQQYYTTPLTFGQGTKVEIKR
notes: Fab from E. coli; also called VH43/VL43
B9: Fab 7088 (Fab, V domains shown)
VH: EVQLVESGGGLVQPGGSLRLSCAASGFSLSTSGVGVGWIRQAPGKGLEWVSYISGDGGSTYYADSVKGRFTISRDNSKNTLYLQLNSLRAEDTAVYYCAREGSTAVVGDWFAYWGQGTLVTVSS
VL: DIQLTQSPSSLSASVGDRVTITCRASQGISSYLAWYQQKPGKAPKLLIYDASNLETGVPSRFSGSGSGTDFTLTISSLQPEDFATYYCQQYYTTPLTFGQGTKVEIKR
notes: Fab from E. coli; also called VH46/VL46
B10: Fab 7087 (Fab, V domains shown)
VH: EVQLVESGGGLVQPGGSLRLSCAASGFSLSTGGVGVGWIRQAPGKGLEWVSYISGDGDTTYYADSVKGRFTISRDNSKNTLYLQLNSLRAEDTAVYYCAREGSTAVLGDWFAYWGQGTLVTVSS
VL: DIQLTQSPSSLSASVGDRVTITCRASQGISSYLAWYQQKPGKAPKLLIYDASNLETGVPSRFSGSGSGTDFTLTISSLQPEDFATYYCQQYYTTPLTFGQGTKVEIKR
notes: Fab from E. coli; also called VH45/VL45
B11: Fab 7077 (Fab, V domains shown)
VH: EVQLVESGGGLVQPGGSLRLSCAASGFSLSTGGVGVAWIRQAPGKGLEWVSYISGSGDTTYYADSVKGRFTISRDNSKNTLYLQLNSLRAEDTAVYYCAREGSDTVVGDWFAYWGQGTLVTVSS
VL: DIQLTQSPSSLSASVGDRVTITCRASQGISSYLAWYQQKPGKAPKLLIYDASNLETGVPSRFSGSGSGTDFTLTISSLQPEDFATYYCQQYYTTPLTFGQGTKVEIKR
notes: Fab from E. coli; also called VH40/VL40
B12: Fab 7079 (Fab, V domains shown)
VH: EVQLVESGGGLVQPGGSLRLSCAASGFSLSTSGVGVAWIRQAPGKGLEWVSSISGYGGTTYYADSVKGRFTISRDNSKNTLYLQLNSLRAEDTAVYYCAREGSDTVLGDWFAYWGQGTLVTVSS
VL: DIQLTQSPSSLSASVGDRVTITCRASQGISSYLAWYQQKPGKAPKLLIYDASNLETGVPSRFSGSGSGTDFTLTISSLQPEDFATYYCQQYYTTPLTFGQGTKVEIKR
notes: Fab from E. coli; also called VH42/VL42
B13: Fab 7081 (Fab, V domains shown)
VH: EVQLVESGGGLVQPGGSLRLSCAASGFSLSTGGVGVGWIRQAPGKGLEWVSYISGAGGTTYYADSVKGRFTISRDNSKNTLYLQLNSLRAEDTAVYYCAREGSDAVLGDWFAYWGQGTLVTVSS
VL: DIQLTQSPSSLSASVGDRVTITCRASQGISSYLAWYQQKPGKAPKLLIYDASNLETGVPSRFSGSGSGTDFTLTISSLQPEDFATYYCQQYYTTPLTFGQGTKVEIKR
notes: Fab from E. coli; also called VH44/VL44
B14: Fab 7100 (Fab, V domains shown)
VH: EVQLVESGGGLVQPGGSLRLSCAASGFSLSTSGVGVGWIRQAPGKGLEWVSYISGDGGSTYYADSVKGRFTISRDNSKNTLYLQLNSLRAEDTAVYYCAREGSDTVLGDWFAYWGQGTLVTVSS
VL: DIQLTQSPSSLSASVGDRVTITCRASQGISSYLAWYQQKPGKAPKLLIYDASNLETGVPSRFSGSGSGTDFTLTISSLQPEDFATYYCQQYYSTPLTFGQGTKVEIKR
notes: Fab from E. coli; also called VH50/VL50
B15: Fab 7078 (Fab, V domains shown)
VH: EVQLVESGGGLVQPGGSLRLSCAASGFSLSTGGVGVGWIRQAPGKGLEWVSYISGDGDTTYYADSVKGRFTISRDNSKNTLYLQLNSLRAEDTAVYYCAREGSDTVAGDWFAYWGQGTLVTVSS
VL: DIQLTQSPSSLSASVGDRVTITCRASQGISSYLAWYQQKPGKAPKLLIYDASNLETGVPSRFSGSGSGTDFTLTISSLQPEDFATYYCQQYYTTPLTFGQGTKVEIKR
notes: Fab from E. coli; also called VH41/VL41
B16: Fab 7090 (Fab, V domains shown)
VH: EVQLVESGGGLVQPGGSLRLSCAASGFSLSTGGVGVAWIRQAPGKGLEWVSYISGYGGTTYYADSVKGRFTISRDNSKNTLYLQLNSLRAEDTAVYYCAREGSTAVLGDWFAYWGQGTLVTVSS
VL: DIQLTQSPSSLSASVGDRVTITCRASQGISSYLAWYQQKPGKAPKLLIYDASNLETGVPSRFSGSGSGTDFTLTISSLQPEDFATYYCQQYYSTPLTFGQGTKVEIKR
notes: Fab from E. coli; also called VH47/VL47
B17: Fab 7105 (Fab, V domains shown)
VH: EVQLVESGGGLVQPGGSLRLSCAASGFSLSTGGVGVGWIRQAPGKGLEWVSYISGAGSTTYYADSVKGRFTISRDNSKNTLYLQLNSLRAEDTAVYYCAREGSDTVLGDWFAYWGQGTLVTVSS
VL: DIQLTQSPSSLSASVGDRVTITCRASQGISSYLAWYQQKPGKAPKLLIYDASNLETGVPSRFSGSGSGTDFTLTISSLQPEDFATYYCQQYYSTPLTFGQGTKVEIKR
notes: Fab from E. coli; also called VH51/VL51
B18: Fab 7092 (Fab, V domains shown)
VH: EVQLVESGGGLVQPGGSLRLSCAASGFSLSTSGMGVGWIRQAPGKGLEWVSYISGYGGTTYYADSVKGRFTISRDNSKNTLYLQLNSLRAEDTAVYYCAREGSDVVAGDWFAYWGQGTLVTVSS
VL: DIQLTQSPSSLSASVGDRVTITCRASQGISSYLAWYQQKPGKAPKLLIYDASNLETGVPSRFSGSGSGTDFTLTISSLQPEDFATYYCQQYYSTPLTFGQGTKVEIKR
notes: Fab from E. coli; also called VH48/VL48

Among the data in US20190055314A1 (ADAGENE, published 2019) are Kd, koff and kon values, retold here.

The Kd is the equilibrium constant for the complex coming apart. Higher therefore signals weaker binding. The term koff denotes a measure of how fast the partners let go of each other. Higher therefore signals a short-lived complex. What is called kon is a measure of how fast the partners come together. A lower kon goes with slow association.

The target in this assay is T1, CD137-hisFc fusion protein (Sino Biological Cat 10041-H03H) (human, UniProt Q07011 24-186).
T1 construct: Bought; also called recombinant human CD137 (fused with human Fc and His tag); not shown: His tag and human Fc
Nature of the assay: BLI Octet, Fab. (In general: BLI is a label-free optical method that tracks binding on a fibre tip over time.)
B1 returned a Kd of 6.2 nM, a koff of 0.00101 s⁻¹ and a kon of 162000 M⁻¹ s⁻¹.
B2: the Kd was determined as 7.44 nM, the koff was 0.000475 s⁻¹ and the kon was 63800 M⁻¹ s⁻¹.
Take B3: the affinity, expressed as Kd, was 40.4 nM; the koff is 0.00231 s⁻¹; the kon came out at 57200 M⁻¹ s⁻¹.
For B4, the Kd was found to be 9.87 nM, the koff was determined as 0.000826 s⁻¹ and the kon was found to be 83700 M⁻¹ s⁻¹.
B5 returned a Kd of 1.76 nM, a koff of 0.000437 s⁻¹ and a kon of 248000 M⁻¹ s⁻¹.
In turn, B6 yielded a Kd of 16.1 nM, an off-rate (koff) of 0.00977 s⁻¹ and a kon of 605000 M⁻¹ s⁻¹.
For B7, the Kd was 12.6 nM, the koff worked out at 0.00444 s⁻¹ and the kon was determined as 352000 M⁻¹ s⁻¹.
Taken in the same sequence, the figures for B8 were 24.4 nM, 0.00746 s⁻¹ and 306000 M⁻¹ s⁻¹.
The matching figures for B9: 43.6 nM, 0.0111 s⁻¹ and 255000 M⁻¹ s⁻¹.
The matching figures for B10: 69.6 nM, 0.00855 s⁻¹ and 123000 M⁻¹ s⁻¹.
The molecule B11 yielded a Kd of 18.8 nM, a koff of 0.00934 s⁻¹ and a kon of 498000 M⁻¹ s⁻¹.
B12: binding was characterised by a dissociation constant (Kd) of 29.9 nM, the koff is 0.003 s⁻¹ and the kon came to 100000 M⁻¹ s⁻¹.
The matching figures for B13: 43.1 nM, 0.0123 s⁻¹ and 287000 M⁻¹ s⁻¹.
B14 gave a Kd of 35 nM, a koff of 0.0162 s⁻¹ and a kon of 462000 M⁻¹ s⁻¹.
The molecule B15 registered a Kd of 25.2 nM, a dissociation rate constant (koff) of 0.0087 s⁻¹ and a kon of 345000 M⁻¹ s⁻¹.
Molecule B16 registered a Kd of 55.5 nM, a koff of 0.0173 s⁻¹ and a kon of 312000 M⁻¹ s⁻¹.
The matching figures for B17: 33.3 nM, 0.011 s⁻¹ and 330000 M⁻¹ s⁻¹.
Taken in the same sequence, the figures for B18 were 45.7 nM, 0.0197 s⁻¹ and 431000 M⁻¹ s⁻¹.
